What all share (test): SPR, Ab captured, ECD-His analyte
(In general: Surface plasmon resonance follows binding to a sensor surface in real time, without labels.)

The target in experiment [1] is T1, cynomolgus SIRPα extracellular domain + His-tag (EGM_02252) (cynomolgus monkey).
T1 construct: also called CySIRPα EGM_02252; cynoSIRPα
T1 chain: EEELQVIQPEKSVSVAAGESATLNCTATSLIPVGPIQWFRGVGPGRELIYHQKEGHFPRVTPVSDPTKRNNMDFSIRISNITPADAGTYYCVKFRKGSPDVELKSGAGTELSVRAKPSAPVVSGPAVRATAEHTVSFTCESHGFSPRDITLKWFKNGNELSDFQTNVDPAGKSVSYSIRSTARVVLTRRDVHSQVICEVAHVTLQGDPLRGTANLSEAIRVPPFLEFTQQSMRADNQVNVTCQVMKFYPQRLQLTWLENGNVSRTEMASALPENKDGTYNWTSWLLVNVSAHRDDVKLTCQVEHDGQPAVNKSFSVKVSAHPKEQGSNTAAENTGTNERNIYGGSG
As to the method: (§1) The binding affinity of anti-SIRPα antibodies to the various SIRPα analytes is determined by surface plasmon resonance (SPR) using a ProteOn XPR36 (Bio-Rad). The running buffer for this experiment and all dilutions (except where stated) are done in 1×HBS-EP+. […] The sensorchip is deactivated with 1M ethanolamine HCl for 420 sec at a flowrate of 10 μl/min.
(§2) The analyte is injected over the captured antibody for 300 sec at a flowrate of 30 μl/min. The dissociation is done for 600 sec. Two-fold serial dilutions of each SIRP protein (Extracellular Domain+His-Tag) are injected as analyte with the highest concentrations indicated in table 36 below.

Experiment [2] has as its target T2, cynomolgus SIRPα extracellular domain + His-tag (XP_015313155) (cynomolgus monkey).
T2 construct: also called CySIRPα XP_015313155; cynoSIRPα
T2 chain: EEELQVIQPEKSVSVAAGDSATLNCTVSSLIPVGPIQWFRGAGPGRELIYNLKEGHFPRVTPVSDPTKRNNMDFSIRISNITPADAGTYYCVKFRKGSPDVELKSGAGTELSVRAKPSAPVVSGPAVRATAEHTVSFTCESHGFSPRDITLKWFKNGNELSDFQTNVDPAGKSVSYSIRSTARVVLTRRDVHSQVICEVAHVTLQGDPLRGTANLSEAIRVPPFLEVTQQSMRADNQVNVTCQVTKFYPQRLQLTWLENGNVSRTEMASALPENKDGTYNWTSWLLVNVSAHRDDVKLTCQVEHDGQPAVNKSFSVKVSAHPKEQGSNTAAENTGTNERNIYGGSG
As to the method:
as §1, §2

For experiment [3], the target named is T3, cynomolgus SIRPβ1 extracellular domain + His-tag (XP_005568598) (cynomolgus monkey).
T3 construct: also called Cyno SIRPβ1; cynoSIRPβ1
T3 chain: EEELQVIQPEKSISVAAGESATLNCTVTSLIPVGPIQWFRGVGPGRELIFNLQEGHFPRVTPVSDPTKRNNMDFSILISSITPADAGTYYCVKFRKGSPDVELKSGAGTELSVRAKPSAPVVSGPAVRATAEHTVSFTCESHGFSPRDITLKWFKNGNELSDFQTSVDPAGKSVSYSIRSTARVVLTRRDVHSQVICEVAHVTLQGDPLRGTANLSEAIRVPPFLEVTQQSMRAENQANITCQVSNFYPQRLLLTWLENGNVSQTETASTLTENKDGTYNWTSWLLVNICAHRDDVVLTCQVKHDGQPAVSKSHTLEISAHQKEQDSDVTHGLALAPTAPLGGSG
How it is done: as §1, §2

Experiment [4] has as its target T4, cynomolgus SIRPβ1v3 extracellular domain + His-tag (XP_005568593) (cynomolgus monkey).
T4 construct: also called Cyno SIRPβ1v3; cynoSIRPβ1v3
T4 chain: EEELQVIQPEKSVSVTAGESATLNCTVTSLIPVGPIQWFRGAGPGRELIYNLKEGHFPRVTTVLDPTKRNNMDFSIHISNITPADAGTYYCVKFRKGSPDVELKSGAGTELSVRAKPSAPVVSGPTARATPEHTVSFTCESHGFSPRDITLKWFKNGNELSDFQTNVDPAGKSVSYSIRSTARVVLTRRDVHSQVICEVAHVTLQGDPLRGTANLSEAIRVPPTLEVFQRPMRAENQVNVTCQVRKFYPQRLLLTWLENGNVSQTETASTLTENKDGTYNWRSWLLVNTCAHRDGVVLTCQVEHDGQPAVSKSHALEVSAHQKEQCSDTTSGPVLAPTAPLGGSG
How it is done:
as §1, §2

The target in experiment [5] is T5, cynomolgus SIRPγ extracellular domain + His-tag (XP_005568591) (cynomolgus monkey, UniProt Q9P1W8 29-359 (human entry)).
T5 construct: also called Cyno SIRPγ; cynoSIRPγ
T5 chain: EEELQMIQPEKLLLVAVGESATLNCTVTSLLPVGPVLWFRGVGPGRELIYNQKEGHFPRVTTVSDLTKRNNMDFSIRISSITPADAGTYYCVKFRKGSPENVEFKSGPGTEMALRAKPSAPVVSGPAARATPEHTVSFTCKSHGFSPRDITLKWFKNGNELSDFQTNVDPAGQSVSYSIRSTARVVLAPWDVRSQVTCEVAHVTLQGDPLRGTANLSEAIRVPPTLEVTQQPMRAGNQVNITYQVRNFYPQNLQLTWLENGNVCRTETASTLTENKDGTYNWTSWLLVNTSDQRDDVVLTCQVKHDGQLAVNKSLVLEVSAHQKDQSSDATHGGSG
How it is done:
as §1, §2

The target in experiment [6] is T6, human SIRPβ1 extracellular domain + His-tag (NP_006056.2) (human, UniProt O00241 30-371).
T6 construct: also called hSIRPβ1; HuSIRPβ1
T6 sequence (O00241 other isoform, or with tags, fused parts or gaps): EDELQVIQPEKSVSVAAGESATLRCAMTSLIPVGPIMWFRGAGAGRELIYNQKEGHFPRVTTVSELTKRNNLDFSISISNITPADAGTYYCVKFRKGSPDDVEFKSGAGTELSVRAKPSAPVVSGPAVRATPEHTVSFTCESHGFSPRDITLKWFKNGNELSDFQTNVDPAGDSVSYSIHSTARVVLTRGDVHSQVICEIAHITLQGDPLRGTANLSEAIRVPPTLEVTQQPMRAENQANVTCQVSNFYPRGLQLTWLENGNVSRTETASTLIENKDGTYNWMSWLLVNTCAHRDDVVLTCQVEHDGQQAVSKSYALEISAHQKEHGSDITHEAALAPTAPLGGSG
How it is done: as §1, §2

In experiment [7] the target is T7, human SIRPβL/SIRPβ1v3 extracellular domain + His-tag (NP_001129316.1) (human, UniProt Q5TFQ8 30-371).
T7 construct: also called hSIRPβ1v3; HuSIRPβ1v3
T7 sequence (Q5TFQ8 other isoform, or with tags, fused parts or gaps): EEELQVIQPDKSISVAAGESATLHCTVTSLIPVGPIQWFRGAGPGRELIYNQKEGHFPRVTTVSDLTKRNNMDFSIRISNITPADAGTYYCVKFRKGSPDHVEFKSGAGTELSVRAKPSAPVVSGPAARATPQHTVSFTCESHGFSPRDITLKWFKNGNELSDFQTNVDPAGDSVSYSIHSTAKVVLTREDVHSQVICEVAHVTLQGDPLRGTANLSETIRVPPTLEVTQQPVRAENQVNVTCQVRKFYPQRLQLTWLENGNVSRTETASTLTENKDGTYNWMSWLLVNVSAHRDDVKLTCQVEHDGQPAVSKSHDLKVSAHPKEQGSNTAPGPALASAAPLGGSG
As to the method: as §1, §2

Experiment [8] has as its target T8, human SIRPγ extracellular domain + His-tag (NP_061026.2) (human, UniProt Q9P1W8 29-360).
T8 construct: also called hSIRPγ; HuSIRPγ
As to the method: as §1, §2

T8 sequence (Q9P1W8 29-360): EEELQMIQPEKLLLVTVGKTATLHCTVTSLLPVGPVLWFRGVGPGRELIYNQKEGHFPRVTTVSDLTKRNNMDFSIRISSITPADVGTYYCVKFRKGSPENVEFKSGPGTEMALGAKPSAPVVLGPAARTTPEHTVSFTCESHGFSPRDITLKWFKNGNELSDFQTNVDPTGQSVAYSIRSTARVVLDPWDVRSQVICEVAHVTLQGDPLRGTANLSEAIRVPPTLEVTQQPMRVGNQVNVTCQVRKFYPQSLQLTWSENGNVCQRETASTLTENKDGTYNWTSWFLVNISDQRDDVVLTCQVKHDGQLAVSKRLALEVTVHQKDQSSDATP

B1: Antibody A12 (antibody, human IgG1, kappa, L234A L235A, V domains shown)
VH: EVQLVESGGGLVQPGGSLRLSCAASGFTLSSYDMHWVRQATGKGLEWVSAIGTAGDTYYTGSVKGRFTISRENAKNSLYLQMNSLRASDTAVYYCVRGGVWDDAFDIWGQGTMVTVSS
VL: DIQMTQSPSSLSASVGDRVTITCRASQDINNYLAWFQQKPGKAPKSLIYTASSLHSGVPSKFSGSGSGTDFTLTISSLQPEDFATYYCQQYVSYPYTFGQGTKLEIKR
Regarding B1, the Kd in experiment [1] came out at 249 nM; in experiment [2], 182 nM; in experiment [4], 279 nM; in experiment [6], 64.4 nM. Moreover, the binding result is given as “no binding (tested: 1000 nM)” in experiment [3], “no binding (tested: 1000 nM)” in experiment [5], “no binding (tested: 100 nM)” in experiment [7] and “no binding (tested: 1000 nM)” in experiment [8].

B2: Antibody A5 (antibody, human IgG1, kappa, L234A L235A, V domains shown)
VH: EVQLVESGGGLVQPGGSLRLSCAASGFTLSSYDMHWVRQAPGKGLEWVSAIGTAGDTYYTGSVKGRFTISRENAKNSLYLQMNSLRASDTAVYYCVRGGVWDDAFDIWGQGTMVTVSS
VL: DIQMTQSPSSLSASVGDRVTITCRASQGINNYAAWFQQKPGKAPKSLIYTASSLHSGVPSKFSGSGSGTDFTLTISSLQPEDFATYYCQQYVSYPYTFGQGTKLEIKR
As to B2, the Kd in experiment [1] was found to be 533 nM; in experiment [2] it was 347 nM; in experiment [4] it was 465 nM; in experiment [6], 64.2 nM. The binding result in experiment [3] is “no binding (tested: 1000 nM)”; in experiment [5], “no binding (tested: 1000 nM)”; in experiment [7], “no binding (tested: 100 nM)”; in experiment [8], “no binding (tested: 1000 nM)”.

B3: Antibody A15 (antibody, human IgG1, kappa, L234A L235A, V domains shown)
VH: EVQLVESGGGLVQPGGSLRLSCAASGFTLSSYDMHWVRQAPGKGLEWVSAIGTAGDTYYTGSVKGRFTISRENAKNSLYLQMNSLRAEDTAVYYCVRGGVWDDAFDIWGQGTMVTVSS
VL: DIQMTQSPSSLSASVGDRVTITCRASQDINNYLAWFQQKPGKAPKSLIYTASSLHSGVPSKFSGSGSGTDFTLTISSLQPEDFATYYCQQYVSYPYTFGQGTKLEIKR
Regarding B3, the Kd amounted to 223 nM in experiment [1], 154 nM in experiment [2], 232 nM in experiment [4] and 58.8 nM in experiment [6]. The binding result is given as “no binding (tested: 1000 nM)” in experiment [3], “no binding (tested: 1000 nM)” in experiment [5], “no binding (tested: 100 nM)” in experiment [7] and “no binding (tested: 1000 nM)” in experiment [8].

B4: Antibody A16 (antibody, human IgG1, kappa, L234A L235A, V domains shown)
VH: EVQLVESGGGLVQPGGSLRLSCAASGFTLSSYDMHWVRQAPGKGLEWVSAIGTAGDTYYTGSVKGRFTISRENAKNSLYLQMNSLRAGDTAVYYCVRGGVWDDAFDIWGQGTMVTVSS
VL: DIQMTQSPSSLSASVGDRVTITCRASQDINNYLAWFQQKPGKAPKSLIYTASSLHSGVPSKFSGSGSGTDFTLTISSLQPEDFATYYCQQYVSYPYTFGQGTKLEIKR
For the molecule B4, the Kd in experiment [1] was 225 nM; in experiment [2] it was 151 nM; in experiment [4], 225 nM; in experiment [6], 62.7 nM. For the same molecule, the binding result in experiment [3] is “no binding (tested: 1000 nM)”; in experiment [5], “no binding (tested: 1000 nM)”; in experiment [7], “no binding (tested: 100 nM)”; in experiment [8], “no binding (tested: 1000 nM)”.

B5: Antibody A14 (antibody, human IgG1, kappa, L234A L235A, V domains shown)
VH: EVQLVESGGGLVQPGGSLRLSCAASGFTLSSYDMHWVRQAPGKGLEWVSAIGTAGDTYYTGSVKGRFTISRENAKNSLYLQMNSLRASDTAVYYCVRGGVWDDAFDIWGQGTMVTVSS
VL: DIQMTQSPSSLSASVGDRVTITCRASQDINNYLAWFQQKPGKAPKSLIYTASSLHSGVPSKFSGSGSGTDFTLTISSLQPEDFATYYCQQYVSYPYTFGQGTKLEIKR
In the case of B5, the Kd in experiment [1] was 222 nM; in experiment [2], 153 nM; in experiment [4], 235 nM; in experiment [6], 58.3 nM. Besides, the binding result in experiment [3] is “no binding (tested: 1000 nM)”; in experiment [5] it was “no binding (tested: 1000 nM)”; in experiment [7] it was “no binding (tested: 100 nM)”; in experiment [8], “no binding (tested: 1000 nM)”.

B6: Antibody A13 (antibody, human IgG1, kappa, L234A L235A, V domains shown)
VH: EVQLVESGGGLVQPGGSLRLSCAASGFTLSSYDMHWVRQAPGKGLEWVSAIGTAGDTYYTGSVKGRFTISRENAKNSLYLQMNSLRAADTAVYYCVRGGVWDDAFDIWGQGTMVTVSS
VL: DIQMTQSPSSLSASVGDRVTITCRASQDINNYLAWFQQKPGKAPKSLIYTASSLHSGVPSKFSGSGSGTDFTLTISSLQPEDFATYYCQQYVSYPYTFGQGTKLEIKR
Regarding B6, the Kd was 226 nM in experiment [1], 160 nM in experiment [2], 238 nM in experiment [4] and 61 nM in experiment [6]. For the same molecule, the binding result is listed as “no binding (tested: 1000 nM)” in experiment [3], “no binding (tested: 1000 nM)” in experiment [5], “no binding (tested: 100 nM)” in experiment [7] and “no binding (tested: 1000 nM)” in experiment [8].

One may read the Kd as the equilibrium constant for the complex coming apart.

The record behind these values is patent US20230012273A1 (Boehringer Ingelheim, published 2023).
